Data taken from PMC9667838.

Target: Secreted form of the peptidase domain (PD) of ACE2 (human)
Assay: BLI

Substance	Kd [nM]
Receptor binding domain (RBD) of the spike glycoprotein of SARS-CoV-2 Omicron subvariant BA.2 (from UniProt P0DTC2 319-541) (domain or fragment)	4.15
Receptor binding domain (RBD) of the spike glycoprotein of SARS-CoV-2 Omicron subvariants BA.4/BA.5 (from UniProt P0DTC2 319-541) (domain or fragment)	4.55
